Consider one molecule from patent US20250018037A1 (SEOUL NATIONAL UNIVERSITY R AND DB FOUNDATION, published 2025).

The target of assay [1] is T1, Biotin conjugated 6×His peptide (also: biotin conjugated, site not given here).
T1 construct: also called histidine hexamer peptide
T1 peptide: HHHHHH
In words: SPR (Biacore 8K): biotin 6×His peptide captured on immobilized streptavidin, scFv injected in 2-fold dilutions (6 curves). An excerpt:
(§1) Since the murine anti-His antibody had decreased binding affinity against 6×His peptide after humanization, affinity maturation was further performed to increase it and chicken anti-CD40 antibody (2B1) was only humanized. Serial dilution antibodies at 6 concentrations were used to characterize the kinetics of antibody-antigen binding by SPR. […] So, there was not affinity loss against their antigen after humanization (FIG. 22B).
(§2) A Biacore 8K SPR system (Cytiva) equipped with CM5 sensor chip (Cytiva) was used to generate binding kinetic rate and affinity constants. To prepare the capture surfaces for anti-His antibodies, streptavidin was immobilized, followed by biotin conjugated 6×His peptide was captured. The antibodies were 2-fold serial diluted with 1×PBS, then injected at a flow rate of 30 μL/min for 3 minutes, allowing 10 minutes dissociation phase. The surface was regenerated using 10 mM glycine, pH 1.5. The kinetics were analyzed using Biacore 8K evaluation software, version 1.0 (Cytiva). In case of anti-CD40 antibodies, anti-human Fc IgG (Jackson ImmunoResearch) was immobilized, and then CD40-hFc protein (Acro Biosystems, #CD0-H5253) was captured. The antibodies were 2-fold serial diluted with HBS-EP+ buffer (10 mm HEPES, 150 mm sodium chloride, 3 mm EDTA, 0.05% Polysorbate 20), then injected at a flow rate of 30 μL/min for 4 minutes, allowing >15 minutes dissociation phase.

Assay [2] concerns the target T1, Biotin conjugated 6×His peptide. The experiment in a line: SPR, Biacore 8K; reference is the parental murine anti-His antibody.
Excerpt: as §1, §2

The target is the same in assay [3]. The experiment in a line: SPR, Biacore 8K, CM5 chip; biotin 6×His peptide captured on streptavidin, scFv injected in 2-fold dilutions.
Excerpt: as §1, §2

No end group written: not given here.

B1: Humanized and affinity maturated anti-His scFv (hu3D5M) (scFv)
scFv: DIVMTQSPLSLPVTPGEPASISCRSSQSIVHSNRNTYLEWYLQKPGQSPQLLIYKVSNRFSGVPDRFSGSGSGTDFTLKISRVEAEDVGVYYCFQGSHVPFTFGQGTKLEIKRGGGGSGGGGSGGGGSGGGGSQVQLVQSGAEVKKPGASVKVSCKASGYTFTDYYMNWVRQAPGQGLEWMGDINPNHGGTYYNHKFKGRVTMTVDTSTSTAYMELRSLRSDDTAVYYCESQSGAYWGQGTTVTVSS
notes: also called humanized anti-His
Regarding B1, in assay [1], the koff amounted to 0.00094 s⁻¹ and the on-rate constant (kon) was 437000 M⁻¹ s⁻¹. In addition, the “fold higher affinity than parental antibody” value in assay [2] came to 5.8 fold. The molecule also came in with a Kd in assay [3] of 2.15 nM.
